According to a protein production outcome set (Wang et al. 2014):

Test: label from the status in PepcDB records

MRKRNPRRATPEELRVCSVLKEKGTREELAHLAARGEWSNVPAYNASREQIADHLGKSVSPESDASFFDSRRFSEAIVLLKSRPVLLVKNGIFDEAPLAGLEQRLKKHRAALATPIRSVGRLELIDHDSMDWCGTGWRIEDDLIVTNRHVASLFAERQGSLFRFRLNQAGKQVRTRVDFREEYRQPESDEHVIARVLWIAPDVSEAPDMAILQVVKGDLLPPPLVLARQDAEPRQAVAVVGYPARDSRNDAGAMEDIFGNIYDVKRFAPGEVVGLPHDAWYLTHDCSTLGGNSGSAVLSIDGGEVVGLHFGGQFRKTNYAVKASVIRSLLARRAWVPVAGAELKRGVPRFQEKQRSVADLAERKGFDEAFLGPKAALPKPGKSHQVLPVGKGTRLDYLHFSVVMSASRRLPILTAVNIDGALKRSLKRKDSWGFDPRIEAAAQVGHKDFYGPASFDKGHMVRREDPGWGDSDAVARQAEDDTFVYTNAVPQVAQLNQRSWLSLEDYVLQNARSEGFRISVFTGPVFRDDDPLYQGVQVPLEFWKVVAMIDADSGELGVSAYLLGQEGMMPSEGFRYGAFKTYQVPLAKVEASADLRFSSALRKADVLAGTPLEEALESGRFIEIDGPDDLLLSRPGPAGKGPLRFRPAAATRVAVR
protein production: failed

MSHPDYRMNLRSLGTHRGVSAVAGPHDIGASPGDKKSKNRSTRGKKKSIFETYMSKEDVSEGLKRGTLIQGVLRINPKKFHEAFIPSPDGDRDIFIDGVVARNRALNGDLVVVKLLPEEHWKVVKPESNDKETEAAYESDIPEELCGHHLPQQSLKSYNDSPDVIVEAQFDGSDSEDGHGITQNVLVDGVKKLSVCVSEKGREDGDAPVTKDETTCISQDTRALSEKSLQRSAKVVYILEKKHSRAATGFLKLLADKNSELFRKYALFSPSDHRVPRIYVPLKDCPQDFVARPKDYANTLFICRIVDWKEDCNFALGQLAKSLGQAGEIEPETEGILTEYGVDFSDFSSEVLECLPQGLPWTIPPEEFSKRRDLRKDCIFTIDPSTARDLDDALSCKPLADGNFKVGVHIADVSYFVPEGSDLDKVAAERATSVYLVQKVVPMLPRLLCEELCSLNPMSDKLTFSVIWTLTPEGKILDEWFGRTIIRSCTKLSYEHAQSMIESPTEKIPAKELPPISPEHSSEEVHQAVLNLHGIAKQLRQQRFVDGALRLDQLKLAFTLDHETGLPQGCHIYEYRESNKPCCAGTPRPKQGCSVTWWNSATRWGCPWTSAPQEPSIKA
protein production: failed

MLKEIKRRNRMKNKRLIGIIAALAVLVAGSLIYSSMNKSEAQNNKDEKKITKIGVLQFVSHPSLDLIYKGIQDGLAEEGYKDDQVKIDFMNSEGDQSKVATMSKQLVANGNDLVVGIATPAAQGLASATKDLPVIMAAITDPIGANLVKDLKKPGGNVTGVSDHNPAQQQVELIKALTPNVKTIGALYSSSEDNSKTQVEEFKAYAEKAGLTVETFAVPSTNEIASTVTVMTSKVDAIWVPIDNTIASGFPTVVSSNQSSKKPIYPSATAMVEVGGLASVVIDQHDLGVATGKMIVQVLKGAKPADTPVNVFSTGKSVINKKIAQELGITIPESVLKEAGQVIE
protein production: not failed

MVALRGKEIDAFLARPDAGRPIVLLYGPDAGLVRERADALIASAVDDPNDPFSLVRLDGDELSAEPSRLVDEAMTVPLFGGQRAIRVRAGSRSFASGIDTLAEMGVKDCRIVIEAGELRPESPLRKACERAKTAVAIGCYPDTERDLAKLMDDELRIANLRIAQDARAALMSFLGGDRQASRNELRKLTLYAHGKGEITLEDVMAVVADASELKLDPIVDGAFAGRPDIVETEFAKAMIAGTYPGVIISAAQRQAAWLHKSALAIADGQPASAVLDGGFPRLHFSRKPAVETALRNFSVARLAAIIEQLATAALDTRKQSTLAAAIAQRTLMAIAANAKRRGLEHHHHHH
protein production: failed

SSSTEVKDNVLTEEEKAEGYTLLFNGKDFTGWKMFNGGDVKGWQVEDGVIVGYGNGGDVIADTTIKVSTDIVTVKNYHNFQIKWDWKIGAQGNSGFLYHVQEGPKYKAPFETGPEYQLIDDDNYPWVSETGKEGLEDWQKTGCNYAMYVPETKQVNPPGEWNSSMVLYKDGYVEHWLNGEKLFSFQEGSEDWKMRRYSGKWEAFPDYGISTTGKLCFQDHGSKVYFKNVKIKDLD
protein production: not failed

MQKPHLLITSAGRRAKLVEYFVKEFKTGRVSTADCSPLASALYMADQHYIVPKIDEVEYIDHLLTLCQDEGVTALLTLIDPELGLLAQATERFQAIGVTVIVSPYAACELCFDKYTMYEYCLRQGIAHARTYATMASFEEALAAGEVQLPVFVKPRNGSASIEVRRVETVEEVEQLFSKNTDLIVQELLVGQELGVDAYVDLISGKVTSIFIKEKLTMRAGETDKSRSVLRDDVFELVEHVLDGSGLVGPLDFDLFDVAGTLYLSEINPRFGGGYPHAYECGVNFPAQLYRNLMHEINVPQIGQYLDDIYMLKHDTVTLISAAELQKIKR
protein production: not failed

ATHTLQLAIGDEPTEGFDPMLGWSHGSYLLLHSPLLKQNEDFSWDSLLLSQYQPSDDGKTWLLTLKPDLKFSDGSPLTAKDVAFTYNNAAASGGKVDMGNFLSAEVIDPLNVRIHLKAPQSTFVNVLGSLGIVSADKYNAKTYAQKPIGAGPYRLVSFQPGQQMIVEANPYYAGNKNDFDKLIFVFLDEDSAFAAAQSGQLGVVRIPPSMAVGSVNNMKLWVRPSVENRGIVFPTTPAGKKDAHGYPIGNDVTADVAIRRAINYAINRQLLADQIMEGHAIPAYTGVQGLPWNNPDSAIKDGDIDKAKQILEQAGWQLNSQGTREKNGLPAKITLWYTSGDTTRRDLAQALRSMLKPIGIDVDLKSGSWETVERNMHANPTLFGWGSLDPMELYHHYSSNAAGVEYYNPGYYKNPMVDKHLQQALDAPTWQQAVPFWQQVDWDGTTGAGIRGDAAWAWLLNIQHTYLANNCVDLGKGTPEIHGSWSLLNSIDSWK
protein production: not failed

MEEPKWLEGLLRTNFFSICPRHRETPRNECNMFCLSCQNAAFCFYCRSSFHIDHPVLQIRRSSYHDVVRVSEIENALDIRGVQTYVINSARVLFLNERPQPKNSSHEPFLIPFASVPWVARFVFLHLFSMQNSFL
protein production: not failed

MVTLEYNANSKLITASDAVVALSTETNIDQINVLTTSLIGETNPNFTPQPNEALSKMIKGLFESGMKNLQQKKLNEALKNVSLAIEMAQRKRAPWEAFAIQLPELHFMLRSKIDLCLILGKHLEALQDLDFLLGTGLIQPDVFVRKADCLLKLRQWEEARATCERGLALAPEDMKLRALLIETARNLAEYNGE
protein production: failed

MLKERAGAVSAGLRALDLALVAAAFGLALALRAAVDVPAVPPLLPAGRHLAWLAVALALWPAAAGAAGVYGQYRTRSRREEILRLARAVGLLALGVAAASFLGRDRDLSRLLLLGWNGIALVLLAGSRVAVRTLAHEARRRGHNTRAFAVVGSGPMARAMRQRLLARPEWGFTFAGFVLEEGAPRRGIPGPVLGRVDELAAVLERYVVDLVVFAVPRDRLPGMEAAVAACQEQGVVAKIGLEPFPPRHGRLTVEDLDGIPVLSYASAPQDALPLLAKRAIDVVASALALVVLSPLLAAVALAVRLDSPGPVLFRQRRVGLSGRTFTLYKFRSMRAGAEAEQARLADRNEMDGPVFKLRDDPRVTRVGKVLRRTSLDELPQLWNVLRGEMSLVGPRPPLPDEVRRYERWQRRRLSVKPGLTCTWQVSGRSEVGFGRWMQLDLDYIDRWSLWQDVRIVLRTIPAVLLGRGAR
protein production: failed

MMDYGIDIWGNENFIIKNGKVCINYEKKPAIIDIVKELRDDGYKGPLLLRFPHLIQKQIENIYGNFNKARKEFGYKGGFNAVYPLKVNQYPGFVKNLVKLGKDYNYGLEAGSKAELLLAMAYNNEGAPITVNGFKDRELINIGFIAAEMGHNITLTIEGLNELEAIIDIAKERFKPKPNIGLRVRLHSAGVGIWAKSGGINSKFGLTSTELIEAVNLLKENKLLEQFTMIHFHLGSQITEIHPLKKALNEAGNIYTELRKMGAKNLKAINLGGGLAVEYSQFKNEKSRNYTLREYANDVVFILKNIAEQKKDLEPDIFIESGRFVAANHAVLIAPVLELFSQEYAENKLILKKQNPKLIDELYDLYKSIKPSNALEYLHDSIDHLESILTLFDLGYVDLQDRSNAEILTHLITKKAILLLGDKQNPADLLAIQDEVQERYLVNFSLFQSMPDFWGLEQNFPIMPLDRLDEEPTRSASIWDITCDSDGEISYSKDKPLFLHDVDVEKENYFLGFFLVGAYQEVLGMKHNLFTHPTEAIISINEKGYEVEGIIEAQSILDTLEDLDYDIHAIMDILNERISNSKLVNDKQKKHILGELYLFLNDNGYLKSIGVLEHHHHHH
protein production: not failed

MNSLDKLKTFIIILIIFSIGFFSRIETAELKGMNTADRAYFTDENGLPYMYEPDSYYNYRLTANILDHGHPGDKIINGTPWDLHSNYPPGNRVNYPPLILWISLLFHNFINLFIPFSLIETCFWLPAIIGPLAGIVMFFMVRRYAGDLPGLLSGVLLVLAPVYFSRTVPGFFDTDMFNIIFPLLVIFFLLKATETKNNYMFPLLLSSFSLALLSLSWNGWAYIFYIIIISSILYMTLCKLKGKAVMGFSRKIAVFVIISLLIIGLAGRLGYALIFPTFFKFTFKSLSAGGWPGIFESISELSAPTFDEFLSLPGPVNMGIGLFGFVIIGSIMLRDEIKRVHLPDFSWYPFILIGIWLIIGLAAYSLSTRFALLVIPPLIIFLGLLMGVMASYLKGSPSMRLRRSGNVFILSLVVMLSTISFIQAYEIQFVPIVDDDFVAASYWIKNETSMDTVVITEWGYGHPLATFSQRPVLMDGGMNPSTPRSYWVYHAFATNNESLSIGIFSMLSTSGNKAVELLNNRTGNTSLTVTILDDILGVNRIYAEKTLQEKYGIDPGFTGELLSYTHPTNKPFIILTKDDMIKWGHWYIYYGFWDFNRSRGYDYIYYVGSSNDTGQIRYYSNDVKFDLTSGASWENRKPYTTIIKYRNFKRVIEGDGKSDFSIIVLLDKNQAIVVDKRFQDSLFVKLVILKEETEHIKPIYKNNSTIIWTVR
protein production: failed

MWVWNMVEIKIVFGSSENMEEIPDNSVHLVVTSPPYYNAPFDFPGLFSSYEEYLNLLRKVGKELMRVLQPGRYACFVTQDVRIEGKLYPIVSDLIHIMVHELGFEYQDKIIWRKPEGYIRISRRSGVLIQHPYPMYYYPDNIYEEVVIFKKPGKFDRSAVPPEIREKSKISISKFQAEKWYLSVWDIKNVLPHEKWSKYTAPFPEELAERLIRLYSYVGETVLDPFLGSGTTCVVSRKLHRNCIGYEIDLELREIIEERLG
protein production: failed

MKPSVSITGEQEAHKVAAIFETETDANGVARVLSQETSLDHEQVIVVSPQDQHPGEELEPENQGIWQTLVRSHLWLGIGGAVAGFIVFLILSAIGVGFIAQNGVVAAAVLAALGLILGLLVAGGVTLRPDHTPYVAKAQSALKEGKYVLTVHASSSEQLKEATTVLKNRNVRLVRTI
protein production: failed

MLCRKNSSLVDRGNVPVYLNVYDLTPINGYAYWLGLGVYHSGVEVHGIEYAYGAHEYPSTGIFEGEPKQCEGFTFRKSILIGKTDLGPLEVRATMEQLADNYKGSSYNLITKNCNHFCDETCIKLTGNPIPSWVNRLARIGKFSGFMCNCVLPATINATRFGNNRVNQDKSCEAENEKKKLTSVSSRERSTIATPSSSSSSPSVQVRGRSRKRRPRALQPSSPLTLGSSSV
protein production: failed

MNSAVGAELFMGDDGVSLRPGLGGTESVLESWRYIMGKLRVGRFLISSRVNGPGRRFVIWFQGCPIRCRGCLNPEFHDEDGGHLIETARLVDMIRDLRDEIEGVTFTGGEPLAQAMELVKLAGAVKSMGLTVVCFTGYEMDEILKGNIEGGLELLEFVDVLIDGPYIEEKSAPLLWRGSTNQDVYFLTERYAEFRDRVMACSEMEAELKVGADGVYMTGIFDVEFWEELRRRLGDGSLEHHHHHH
protein production: failed

SSEANSNSEFQTFIEQENQKAAIQAAISKLTETCWDKCVGKPGSKLDRAESECIANCAERFLDSSSFIMQRLMKKQ
protein production: not failed
